Data set [1] concerns the target T1, GST-hnRNP-Q1 (UniProt O60506-3 1-562).
T1 sequence: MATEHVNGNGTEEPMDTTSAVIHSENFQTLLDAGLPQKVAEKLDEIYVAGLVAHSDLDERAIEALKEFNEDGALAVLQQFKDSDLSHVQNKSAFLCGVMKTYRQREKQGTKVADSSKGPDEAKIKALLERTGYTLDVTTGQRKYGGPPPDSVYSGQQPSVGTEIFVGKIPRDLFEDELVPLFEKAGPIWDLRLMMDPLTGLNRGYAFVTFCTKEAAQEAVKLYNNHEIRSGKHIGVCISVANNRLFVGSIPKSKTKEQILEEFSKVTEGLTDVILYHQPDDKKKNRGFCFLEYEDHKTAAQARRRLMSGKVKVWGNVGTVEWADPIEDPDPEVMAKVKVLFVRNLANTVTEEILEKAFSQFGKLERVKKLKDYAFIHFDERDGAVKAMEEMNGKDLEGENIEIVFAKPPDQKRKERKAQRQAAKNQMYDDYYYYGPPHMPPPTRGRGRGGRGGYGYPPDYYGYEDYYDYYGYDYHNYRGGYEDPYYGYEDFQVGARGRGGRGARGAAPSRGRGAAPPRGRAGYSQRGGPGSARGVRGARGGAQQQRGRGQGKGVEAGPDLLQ
Put plainly: biotin pull-down, GST immunoblot. A general note: In western blotting, separated proteins are transferred to a membrane and probed.

Data set [2] deals with T2, hnRNP-Q1 RGG box peptide (UniProt O60506-3 406-561).
T2 sequence: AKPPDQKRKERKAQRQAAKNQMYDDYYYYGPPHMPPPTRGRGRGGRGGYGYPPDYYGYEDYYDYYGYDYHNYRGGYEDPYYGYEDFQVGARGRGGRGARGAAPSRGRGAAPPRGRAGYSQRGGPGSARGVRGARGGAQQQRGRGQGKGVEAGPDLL
Put plainly: fluorescence spectroscopy.

Turning to GGGAGGGAGGGAGGGA (structured_RNA) [Gap-43 5'GQ (5' biotin)], the binding result in data set [1] is “binds”.
For the molecule GGGAGGGAGGGAGGGAGAGC (structured_RNA, 2-aminopurine replaces A4) [2AP Gap-43 5'GQ RNA], the Kd in data set [2] stood at 131 ± 14 nM.

The Kd is the concentration at which binding is half-saturated. The low end stands for a tighter complex, the high end for a looser complex.

Values taken from article PMC4751602.
